Values of other authors, collected in paper PMC4628734.

Molecular target: Cdc25C (Homo sapiens) (UniProt P30307)
Sequence of UniProt P30307 (P30307 whole entry, looked up): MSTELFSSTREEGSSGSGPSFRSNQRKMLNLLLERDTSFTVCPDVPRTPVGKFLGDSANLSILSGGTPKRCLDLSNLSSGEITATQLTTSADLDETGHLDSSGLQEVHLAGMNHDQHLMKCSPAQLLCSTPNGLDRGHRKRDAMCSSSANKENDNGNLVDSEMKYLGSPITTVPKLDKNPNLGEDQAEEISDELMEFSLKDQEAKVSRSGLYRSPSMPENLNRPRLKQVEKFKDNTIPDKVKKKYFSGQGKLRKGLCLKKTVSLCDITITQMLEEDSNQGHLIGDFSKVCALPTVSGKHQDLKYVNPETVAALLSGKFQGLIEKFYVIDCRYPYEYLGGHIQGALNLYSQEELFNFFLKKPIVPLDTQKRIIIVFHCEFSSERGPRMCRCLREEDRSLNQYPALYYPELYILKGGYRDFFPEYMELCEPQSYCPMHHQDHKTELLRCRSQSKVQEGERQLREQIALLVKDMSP

**Q.** For PLK-1 PBD (from UniProt P53350), which Kd is on record?
**A.** 1.8 µM
